In article PMC4975007:

Biological target: Dbp2 (MBP-TEV-Dbp2 construct) (Saccharomyces cerevisiae, UniProt P24783 1-546)
Assay: fluorescence anisotropy

Chain of Dbp2 (MBP-TEV-Dbp2 construct) (P24783 whole entry): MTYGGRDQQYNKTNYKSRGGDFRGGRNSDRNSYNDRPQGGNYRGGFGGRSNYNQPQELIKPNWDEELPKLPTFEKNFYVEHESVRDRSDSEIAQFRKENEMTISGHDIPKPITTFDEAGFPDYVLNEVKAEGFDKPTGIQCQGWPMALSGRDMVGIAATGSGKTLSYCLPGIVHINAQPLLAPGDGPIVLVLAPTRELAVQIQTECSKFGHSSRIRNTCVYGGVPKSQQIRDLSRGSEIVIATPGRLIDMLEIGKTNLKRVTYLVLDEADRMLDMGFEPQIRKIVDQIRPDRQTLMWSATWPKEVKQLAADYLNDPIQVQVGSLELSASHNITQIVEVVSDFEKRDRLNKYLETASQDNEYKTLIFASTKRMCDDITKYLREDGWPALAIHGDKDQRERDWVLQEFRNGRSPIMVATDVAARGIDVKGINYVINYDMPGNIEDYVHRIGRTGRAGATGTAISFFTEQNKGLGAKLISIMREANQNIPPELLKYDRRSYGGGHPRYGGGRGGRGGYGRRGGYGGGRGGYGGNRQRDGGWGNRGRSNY

**Q.** How did the Kd turn out when AGCACCGUAAAGACGC (ssRNA) [16 nt ssRNA, 6-FAM] was run?
**A.** 38 nM
